Sequences and labels used below:
B1: A66-IgG1 (antibody, V domains shown)
VH: QVQLVQSGAEVKKPGSSVKVSCKASGGPFSMTAFTWLRQAPGQGLEWMGGISPIFRTPKYAQKFQGRVTITADESTNTANMELTSLKSEDTAVYYCARTLSSYQPNNDAFAIWGQGTMVTVSS
VL: EIVLTQSPATLSLSPGERATLSCRASQSVSSYLAWYQQKPGQAPRLLIYDASNRATGIPARFSGSGSGTDFTLTISRLEPEDFAVYFCQQYGSSPQFGQGTRLEIK
B2: F10-IgG1 (antibody, V domains shown)
VH: QVQLVQSGAEVKKPGSSVKVSCTSSEVTFSSFAISWVRQAPGQGLEWLGGISPMFGTPNYAQKFQGRVTITADQSTRTAYMDLRSLRSEDTAVYYCARSPSYICSGGTCVFDHWGQGTLVTVSS
VL: QPGLTQPPSVSKGLRQTATLTCTGNSNNVGNQGAAWLQQHQGHPPKLLSYRNNDRPSGISERFSASRSGNTASLTITGLQPEDEADYYCSTWDSSLSAVVFGGGTKLTVL
B3: D8-IgG1 (antibody, V domains shown)
VH: QVQLVQSGAEVKKPGSSVKVSCKASGGTFSAYAFTWVRQAPGQGLEWMGGITGMFGTANYAQKFQGRVTITADELTSTAYMELSSLTSEDTALYYCARGLYYYESSLDYWGQGTLVTVSS
VL: QSVLTQPPSASGSPGQSVTISCTGTSSDVGGYNSVSWYQQHPGKAPKLMIYEVTKRPSGVPDRFSASKSGNTASLTVSGLQAEDEADYFCCSYAGHSAYVFGTGTKVTVL

full-length H1 HA of H1-SC1918 (A/South Carolina/1/1918 (H1N1)), sequence (Q9WFX3 18-566): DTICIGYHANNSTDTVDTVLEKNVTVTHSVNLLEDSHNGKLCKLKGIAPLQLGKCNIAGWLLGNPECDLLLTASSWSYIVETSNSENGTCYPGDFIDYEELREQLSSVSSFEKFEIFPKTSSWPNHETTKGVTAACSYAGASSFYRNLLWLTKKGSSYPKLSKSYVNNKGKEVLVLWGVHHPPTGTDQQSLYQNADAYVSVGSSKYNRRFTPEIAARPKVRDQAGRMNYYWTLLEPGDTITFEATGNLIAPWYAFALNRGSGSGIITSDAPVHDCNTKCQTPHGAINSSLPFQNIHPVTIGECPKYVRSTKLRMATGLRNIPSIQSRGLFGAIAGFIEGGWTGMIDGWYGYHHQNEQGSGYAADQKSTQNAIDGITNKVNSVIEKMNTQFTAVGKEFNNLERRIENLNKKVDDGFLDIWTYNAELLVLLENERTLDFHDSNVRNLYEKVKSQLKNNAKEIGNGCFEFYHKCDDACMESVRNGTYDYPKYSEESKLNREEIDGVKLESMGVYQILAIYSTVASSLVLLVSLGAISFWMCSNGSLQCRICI
full-length H7 HA of H7-FP34 (A/FPV/Rostock/34 (H7N1)), sequence (P03459 19-563): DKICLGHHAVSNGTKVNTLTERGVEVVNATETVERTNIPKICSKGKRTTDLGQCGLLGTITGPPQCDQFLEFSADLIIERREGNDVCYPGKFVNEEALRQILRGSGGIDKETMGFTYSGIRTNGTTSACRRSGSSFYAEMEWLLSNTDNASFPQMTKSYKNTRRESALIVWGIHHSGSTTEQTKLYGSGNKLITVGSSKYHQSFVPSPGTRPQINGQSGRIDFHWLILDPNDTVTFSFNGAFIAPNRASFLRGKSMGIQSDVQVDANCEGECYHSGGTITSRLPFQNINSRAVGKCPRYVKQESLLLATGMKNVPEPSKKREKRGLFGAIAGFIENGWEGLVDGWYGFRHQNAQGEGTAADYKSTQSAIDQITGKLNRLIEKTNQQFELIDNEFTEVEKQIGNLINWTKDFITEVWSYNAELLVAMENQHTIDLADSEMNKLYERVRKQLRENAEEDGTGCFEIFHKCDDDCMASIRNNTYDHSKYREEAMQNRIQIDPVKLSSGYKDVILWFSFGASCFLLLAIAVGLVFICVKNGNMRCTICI

The target of the first assay is full-length H1 HA of H1-PR34 (A/Puerto Rico/8/34 (H1N1)) (influenza A virus A/Puerto Rico/8/34 …, UniProt P03452 18-565). Put plainly: FACS on transfected 293T cells.
full-length H1 HA of H1-PR34 (A/Puerto Rico/8/34 (H1N1)), sequence (P03452 18-565): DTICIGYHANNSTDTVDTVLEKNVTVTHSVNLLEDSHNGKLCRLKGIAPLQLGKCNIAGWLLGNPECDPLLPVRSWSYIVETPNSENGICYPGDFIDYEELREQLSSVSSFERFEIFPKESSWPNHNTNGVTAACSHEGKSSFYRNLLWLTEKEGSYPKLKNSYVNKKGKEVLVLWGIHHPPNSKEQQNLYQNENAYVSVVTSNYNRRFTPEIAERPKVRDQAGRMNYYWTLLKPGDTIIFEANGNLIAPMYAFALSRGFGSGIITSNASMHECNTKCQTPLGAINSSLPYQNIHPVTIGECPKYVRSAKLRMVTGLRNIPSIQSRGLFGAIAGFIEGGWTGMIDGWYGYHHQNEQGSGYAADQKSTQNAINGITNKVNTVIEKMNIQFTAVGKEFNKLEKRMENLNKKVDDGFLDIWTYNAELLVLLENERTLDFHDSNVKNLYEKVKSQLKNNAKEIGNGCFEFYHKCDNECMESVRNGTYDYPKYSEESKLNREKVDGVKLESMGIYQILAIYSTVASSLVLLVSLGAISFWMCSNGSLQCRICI
On to B1, for which the binding result is “binds”.

As for B2, the binding result is recorded as “binds”.

Consider B3, for which the binding result was “binds”.

The target of the next assay is full-length H14 HA of H14-CU82 (A/mallard/Gurjev/263/82 (H14N5)) (influenza A virus …, UniProt P26136 18-568). Put plainly: FACS on transfected 293T cells.
full-length H14 HA of H14-CU82 (A/mallard/Gurjev/263/82 (H14N5)), sequence (P26136 18-568 limits assumed): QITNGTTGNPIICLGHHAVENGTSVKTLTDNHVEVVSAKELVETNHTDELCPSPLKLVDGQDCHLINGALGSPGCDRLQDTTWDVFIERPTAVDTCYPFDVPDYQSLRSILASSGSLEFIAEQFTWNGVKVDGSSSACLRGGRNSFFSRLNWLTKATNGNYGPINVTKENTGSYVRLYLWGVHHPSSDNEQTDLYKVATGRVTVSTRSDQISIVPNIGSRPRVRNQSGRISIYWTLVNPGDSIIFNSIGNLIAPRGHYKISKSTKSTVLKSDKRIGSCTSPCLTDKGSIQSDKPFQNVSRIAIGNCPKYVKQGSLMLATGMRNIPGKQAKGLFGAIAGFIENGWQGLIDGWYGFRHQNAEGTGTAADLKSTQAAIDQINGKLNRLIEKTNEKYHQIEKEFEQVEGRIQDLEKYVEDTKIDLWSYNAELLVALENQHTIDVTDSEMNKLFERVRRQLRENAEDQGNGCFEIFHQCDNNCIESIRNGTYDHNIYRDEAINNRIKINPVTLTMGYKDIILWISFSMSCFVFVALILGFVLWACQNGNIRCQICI
Take B1: the binding result is “no binding”.

For B2, the binding result is on record as “no binding”.

For B3, the binding result is reported as “no binding”.

The next assay has as its target full-length H1 HA of H1-SC1918 (A/South Carolina/1/1918 (H1N1)) (influenza A virus A/South …, UniProt Q9WFX3 18-566). Put plainly: FACS on transfected 293T cells.
Take B1: the binding result is on record as “binds”.

On to B2, for which the binding result is recorded as “binds”.

Regarding B3, the binding result is listed as “binds”.

For the next assay, the target named is full-length H8 HA of H8-ON68 (A/turkey/Ontario/6118/68) (influenza A virus …, UniProt P03456 16-565). Put plainly: FACS on transfected 293T cells.
full-length H8 HA of H8-ON68 (A/turkey/Ontario/6118/68), sequence (P03456 16-565 limits assumed): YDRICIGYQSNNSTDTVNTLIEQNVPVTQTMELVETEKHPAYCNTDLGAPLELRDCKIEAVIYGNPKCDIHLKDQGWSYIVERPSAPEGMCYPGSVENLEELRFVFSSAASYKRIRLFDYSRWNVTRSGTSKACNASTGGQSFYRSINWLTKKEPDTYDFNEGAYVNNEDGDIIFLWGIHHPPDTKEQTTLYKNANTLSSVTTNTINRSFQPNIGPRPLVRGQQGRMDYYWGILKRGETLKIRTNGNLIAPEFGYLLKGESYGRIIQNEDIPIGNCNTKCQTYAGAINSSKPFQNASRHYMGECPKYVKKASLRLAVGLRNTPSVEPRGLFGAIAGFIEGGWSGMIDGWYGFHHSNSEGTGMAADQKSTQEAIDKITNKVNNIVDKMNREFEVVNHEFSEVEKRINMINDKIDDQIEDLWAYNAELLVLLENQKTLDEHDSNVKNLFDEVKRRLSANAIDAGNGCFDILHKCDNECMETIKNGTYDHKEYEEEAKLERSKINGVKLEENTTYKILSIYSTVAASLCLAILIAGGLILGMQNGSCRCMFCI
As to B1, the binding result is “binds”.

On to B2, for which the binding result is reported as “binds”.

With B3, the binding result is listed as “binds”.

A further assay addresses full-length H7 HA of H7-FP34 (A/FPV/Rostock/34 (H7N1)) (influenza A virus A/FPV/Rostock/34 …, UniProt P03459 19-563). Put plainly: FACS on transfected 293T cells.
As to B1, the binding result is reported as “no binding (tested: 10 µg/mL)”.

Take B2: the binding result is recorded as “no binding (tested: 10 µg/mL)”.

As to B3, the binding result is reported as “no binding (tested: 10 µg/mL)”.

Another assay has as its target full-length H2 HA of H2-JP57 (A/Japan/305/57 (H2N2)) (influenza A virus A/Japan/305/57 (H2N2), UniProt P03451 16-562). Put plainly: FACS on transfected 293T cells.
Consider B1, for which the binding result was “binds”.

In the case of B2, the binding result is listed as “binds”.

As to B3, the binding result was “binds”.

For a further assay, the target named is full-length H13 HA of H13-MD77 (A/Gull/MD/704/77 (H13N6)) (influenza A virus A/Gull/MD/704/77 …, UniProt P13103 19-566). Put plainly: FACS on transfected 293T cells.
full-length H13 HA of H13-MD77 (A/Gull/MD/704/77 (H13N6)), sequence (P13103 19-566): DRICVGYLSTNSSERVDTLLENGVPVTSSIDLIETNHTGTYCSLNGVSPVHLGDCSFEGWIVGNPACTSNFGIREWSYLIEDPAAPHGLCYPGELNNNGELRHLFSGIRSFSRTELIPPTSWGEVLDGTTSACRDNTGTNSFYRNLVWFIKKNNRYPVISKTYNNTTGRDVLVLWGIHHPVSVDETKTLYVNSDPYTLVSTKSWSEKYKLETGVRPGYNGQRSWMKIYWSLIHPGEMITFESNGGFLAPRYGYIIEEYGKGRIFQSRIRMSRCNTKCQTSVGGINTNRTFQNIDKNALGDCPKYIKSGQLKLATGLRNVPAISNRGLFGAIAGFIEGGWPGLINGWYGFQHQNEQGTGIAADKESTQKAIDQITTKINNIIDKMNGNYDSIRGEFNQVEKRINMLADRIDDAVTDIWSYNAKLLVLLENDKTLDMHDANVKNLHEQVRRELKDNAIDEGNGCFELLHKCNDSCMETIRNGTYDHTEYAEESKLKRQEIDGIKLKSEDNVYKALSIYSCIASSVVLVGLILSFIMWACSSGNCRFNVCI
Consider B1, for which the binding result is “binds”.

For the molecule B2, the binding result is “binds”.

B3: the binding result was “binds”.

The record behind these values is patent US20210221873A1 (Dana-Farber, published 2021).
